Data: article PMC9482650, “Quantitative fragmentomics allow affinity mapping of interactomes” (Nature Communications, 2022)

Columns and labels:
Assay in all cases: holdup assay
Parameters in all cases: key: below the threshold = too weak to quantify, mostly under pKd 3.1 to 4
[1] = target: T1, INTU, Q9ULD6
T1 sequence (Q9ULD6 180-273, limits assumed, looked up): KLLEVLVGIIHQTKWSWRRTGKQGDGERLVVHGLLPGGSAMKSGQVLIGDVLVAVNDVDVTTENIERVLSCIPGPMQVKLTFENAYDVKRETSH

[2] = target: T2, LNX2_4, Q8N448
T2 sequence (Q8N448 595-690, limits assumed, looked up): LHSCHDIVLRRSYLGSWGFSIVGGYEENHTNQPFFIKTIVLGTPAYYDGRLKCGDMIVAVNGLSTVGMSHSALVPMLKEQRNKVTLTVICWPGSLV

[3] = target: MAGI3_5, Q5TCQ9
Sequence of MAGI3_5, Q5TCQ9 (Q5TCQ9 847-941): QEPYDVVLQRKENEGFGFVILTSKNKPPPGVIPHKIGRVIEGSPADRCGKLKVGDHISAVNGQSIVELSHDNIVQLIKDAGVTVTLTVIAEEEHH

[4] = target: T3, MLLT4, P55196
T3 sequence (P55196 1002-1103, limits assumed, looked up): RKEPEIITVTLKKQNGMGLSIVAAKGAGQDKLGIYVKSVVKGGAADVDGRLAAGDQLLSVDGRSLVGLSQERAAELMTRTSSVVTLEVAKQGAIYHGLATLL

[5] = target: T4, MPDZ_11, O75970
T4 sequence (O75970 1720-1817, limits assumed, looked up): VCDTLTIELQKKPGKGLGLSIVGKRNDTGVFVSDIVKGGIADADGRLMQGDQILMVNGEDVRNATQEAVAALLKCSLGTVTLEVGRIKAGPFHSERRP

[6] = target: T5, NHERF3_2, Q5T2W1
T5 sequence (Q5T2W1 129-225, limits assumed, looked up): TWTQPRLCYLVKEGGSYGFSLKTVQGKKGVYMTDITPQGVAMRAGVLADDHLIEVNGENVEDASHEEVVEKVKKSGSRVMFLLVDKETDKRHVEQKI

[7] = target: T6, PARD6G, Q9BYG4
T6 sequence (Q9BYG4 153-261, limits assumed, looked up): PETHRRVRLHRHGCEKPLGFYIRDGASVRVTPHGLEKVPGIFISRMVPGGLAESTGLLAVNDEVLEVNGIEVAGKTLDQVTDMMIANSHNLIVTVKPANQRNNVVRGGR

[8] = target: T7, PDLIM3, Q53GG5
T7 sequence (Q53GG5 1-94, limits assumed, looked up): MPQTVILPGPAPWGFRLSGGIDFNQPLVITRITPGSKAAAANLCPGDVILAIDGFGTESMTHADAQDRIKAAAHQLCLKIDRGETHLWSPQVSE

[9] = target: T8, PDZD11, Q5EBL8
T8 sequence (Q5EBL8 42-139, limits assumed, looked up): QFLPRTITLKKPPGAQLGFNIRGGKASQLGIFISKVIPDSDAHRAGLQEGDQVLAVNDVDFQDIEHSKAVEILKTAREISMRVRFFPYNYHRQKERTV

[10] = target: T9, PDZD2_6, O15018
T9 sequence (O15018 2745-2839, limits assumed, looked up): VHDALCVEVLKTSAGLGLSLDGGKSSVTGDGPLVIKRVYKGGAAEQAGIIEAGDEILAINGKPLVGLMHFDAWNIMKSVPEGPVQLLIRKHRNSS

[11] = target: T10, PDZD8, Q8NEN9
T10 sequence (Q8NEN9 361-459, limits assumed, looked up): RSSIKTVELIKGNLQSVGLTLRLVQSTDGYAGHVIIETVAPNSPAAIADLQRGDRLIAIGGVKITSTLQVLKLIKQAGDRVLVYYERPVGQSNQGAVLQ

[12] = target: T11, PREX2_2, Q70Z35
T11 sequence (Q70Z35 672-764, limits assumed, looked up): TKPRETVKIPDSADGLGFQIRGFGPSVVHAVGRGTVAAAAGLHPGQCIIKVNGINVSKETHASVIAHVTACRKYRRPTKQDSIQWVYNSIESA

[13] = target: T12, SHANK2, Q9UPX8
T12 sequence (Q9UPX8 621-730, limits assumed, looked up): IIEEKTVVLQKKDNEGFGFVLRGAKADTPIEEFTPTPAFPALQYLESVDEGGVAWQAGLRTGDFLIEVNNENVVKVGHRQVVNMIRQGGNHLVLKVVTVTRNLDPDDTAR

[14] = target: O00233; details: plain residues with an end cap or a label only (N-terminal biotin on a linker: ttds)
[15] = target: O00560; details: plain residues with an end cap or a label only (N-terminal biotin on a linker: ttds)
[16] = target: O60759; details: plain residues with an end cap or a label only (N-terminal biotin on a linker: ttds)
[17] = target: Q8IUC4; details: plain residues with an end cap or a label only (N-terminal biotin on a linker: ttds)
[18] = target: Q8TEW0; details: plain residues with an end cap or a label only (N-terminal biotin on a linker: ttds)
[19] = target: Q92614; details: plain residues with an end cap or a label only (N-terminal biotin on a linker: ttds)
[20] = target: Q96JB8; details: plain residues with an end cap or a label only (N-terminal biotin on a linker: ttds)
[21] = target: Q9C0E4; details: plain residues with an end cap or a label only (N-terminal biotin on a linker: ttds)
[22] = target: Q9P227; details: plain residues with an end cap or a label only (N-terminal biotin on a linker: ttds)
[23] = target: Q9ULJ8; details: plain residues with an end cap or a label only (N-terminal biotin on a linker: ttds)
[24] = target: Q9UMS6; details: plain residues with an end cap or a label only (N-terminal biotin on a linker: ttds)
[25] = target: Q9Y3R0; details: plain residues with an end cap or a label only (N-terminal biotin on a linker: ttds)
[26] = plain residues with an end cap or a label only (N-terminal biotin on a linker: ttds)
[27] = plain residues with an end cap or a label only (N-terminal biotin on a linker: none)

In the case of SEKHFRETEV [HTLV1-TAX1, P03409], the pKd [1, 26] is reported as 3.8, the pKd [2, 26] is reported as “below the threshold” and the pKd [3, 26] is reported as 4.86. For the same binder, the pKd [4, 26] was 4.08, the pKd [5, 26] was 4.25 and the pKd [6, 26] was “below the threshold”. The pKd [7, 26] was 3.93, the pKd [8, 26] was 4.12 and the pKd [9, 26] was “below the threshold”. For the same binder, the pKd [10, 26] was “below the threshold”, the pKd [11, 26] was “below the threshold” and the pKd [12, 26] was “below the threshold”. The pKd [13, 26] was “below the threshold”.

For DSKPPLPPDEWV [MERS-E, K9N5R3], the pKd [1, 27] was “below the threshold”, the pKd [2, 27] was 3.73 and the pKd [3, 27] was “below the threshold”. For the same binder, the pKd [4, 27] was “below the threshold”, the pKd [5, 27] was “below the threshold” and the pKd [6, 27] was “below the threshold”. For the same binder, the pKd [7, 27] was “below the threshold”, the pKd [8, 27] was “below the threshold” and the pKd [9, 27] was “below the threshold”. The pKd [10, 27] was “below the threshold”, the pKd [11, 27] was “below the threshold” and the pKd [12, 27] was “below the threshold”. For the same binder, the pKd [13, 27] was “below the threshold”.

In the case of CLDTSRETDL [KCNA5, P22460], the pKd [2, 26] is reported as “below the threshold”, the pKd [3, 26] is reported as “below the threshold” and the pKd [4, 26] is reported as “below the threshold”. For the same binder, the pKd [5, 26] was “below the threshold”, the pKd [6, 26] was “below the threshold” and the pKd [14] was “below the threshold”. For the same binder, the pKd [15] was “below the threshold”, the pKd [16] was “below the threshold” and the pKd [7, 26] was “below the threshold”. The pKd [8, 26] was “below the threshold”, the pKd [9, 26] was “below the threshold” and the pKd [10, 26] was “below the threshold”. The pKd [11, 26] was “below the threshold”, the pKd [12, 26] was “below the threshold” and the pKd [17] was “below the threshold”. For the same binder, the pKd [18] was “below the threshold”, the pKd [19] was “below the threshold” and the pKd [20] was “below the threshold”. For the same binder, the pKd [21] was “below the threshold”, the pKd [22] was “below the threshold” and the pKd [23] was “below the threshold”. For the same binder, the pKd [24] was “below the threshold”, the pKd [25] was “below the threshold” and the pKd [13, 26] was “below the threshold”.

In the case of DEDQHTQITKV [PTEN, P60484], the pKd [1, 26] is reported as “below the threshold”, the pKd [2, 26] is reported as “below the threshold” and the pKd [3, 26] is reported as “below the threshold”. The pKd [4, 26] was “below the threshold”, the pKd [5, 26] was “below the threshold” and the pKd [6, 26] was “below the threshold”. The pKd [7, 26] was “below the threshold”, the pKd [8, 26] was “below the threshold” and the pKd [9, 26] was “below the threshold”. The pKd [10, 26] was 3.56, the pKd [11, 26] was “below the threshold” and the pKd [12, 26] was “below the threshold”. The pKd [13, 26] was “below the threshold”.

With HIVEALETDV [PBK, Q96KB5] the pKd [1, 26] was 4.9, the pKd [2, 26] was “below the threshold” and the pKd [3, 26] was “below the threshold”. For the same binder, the pKd [4, 26] was “below the threshold”, the pKd [5, 26] was “below the threshold” and the pKd [6, 26] was “below the threshold”. The pKd [14] was “below the threshold”, the pKd [15] was “below the threshold” and the pKd [16] was “below the threshold”. The pKd [7, 26] was “below the threshold”, the pKd [8, 26] was “below the threshold” and the pKd [9, 26] was “below the threshold”. The pKd [10, 26] was “below the threshold”, the pKd [11, 26] was “below the threshold” and the pKd [12, 26] was “below the threshold”. For the same binder, the pKd [17] was “below the threshold”, the pKd [18] was “below the threshold” and the pKd [20] was “below the threshold”. For the same binder, the pKd [21] was “below the threshold”, the pKd [22] was “below the threshold” and the pKd [23] was “below the threshold”. For the same binder, the pKd [24] was “below the threshold”, the pKd [25] was “below the threshold” and the pKd [13, 26] was “below the threshold”.

For IQREDQETAV [DGKZ, Q13574], the pKd [2, 26] was “below the threshold”, the pKd [3, 26] was 4.51 and the pKd [4, 26] was “below the threshold”. The pKd [5, 26] was “below the threshold”, the pKd [6, 26] was “below the threshold” and the pKd [14] was “below the threshold”. The pKd [15] was “below the threshold”, the pKd [16] was “below the threshold” and the pKd [7, 26] was “below the threshold”. The pKd [8, 26] was “below the threshold”, the pKd [9, 26] was “below the threshold” and the pKd [10, 26] was “below the threshold”. For the same binder, the pKd [11, 26] was “below the threshold”, the pKd [12, 26] was “below the threshold” and the pKd [17] was “below the threshold”. The pKd [18] was “below the threshold”, the pKd [19] was “below the threshold” and the pKd [20] was “below the threshold”. The pKd [21] was “below the threshold”, the pKd [22] was “below the threshold” and the pKd [23] was “below the threshold”. For the same binder, the pKd [24] was “below the threshold”, the pKd [25] was “below the threshold” and the pKd [13, 26] was “below the threshold”.

In the case of RRVRKLPSTTL [RPS6KA1, Q15418], the pKd [1, 26] is reported as “below the threshold”, the pKd [2, 26] is reported as “below the threshold” and the pKd [3, 26] is reported as “below the threshold”. The pKd [4, 26] was “below the threshold”, the pKd [5, 26] was 3.58 and the pKd [6, 26] was “below the threshold”. For the same binder, the pKd [7, 26] was “below the threshold”, the pKd [8, 26] was “below the threshold” and the pKd [9, 26] was “below the threshold”. The pKd [10, 26] was “below the threshold” and the pKd [11, 26] was “below the threshold”.

With TGDTLEKFVEGL [CBP, Q92793] the pKd [1, 26] was “below the threshold”, the pKd [2, 26] was “below the threshold” and the pKd [3, 26] was “below the threshold”. For the same binder, the pKd [4, 26] was “below the threshold”, the pKd [5, 26] was “below the threshold” and the pKd [6, 26] was “below the threshold”. The pKd [7, 26] was 3.82, the pKd [8, 26] was “below the threshold” and the pKd [9, 26] was “below the threshold”. For the same binder, the pKd [10, 26] was 3.86, the pKd [11, 26] was “below the threshold” and the pKd [12, 26] was “below the threshold”. For the same binder, the pKd [19] was “below the threshold”, the pKd [20] was “below the threshold” and the pKd [13, 26] was “below the threshold”.
